Assays:
[1] = molecular target: T1, HCoV-HKU1 prefusion-stabilized spike (S) protein / S ectodomain trimer (human coronavirus HKU1, UniProt Q5MQD0 13-1300)
T1 sequence: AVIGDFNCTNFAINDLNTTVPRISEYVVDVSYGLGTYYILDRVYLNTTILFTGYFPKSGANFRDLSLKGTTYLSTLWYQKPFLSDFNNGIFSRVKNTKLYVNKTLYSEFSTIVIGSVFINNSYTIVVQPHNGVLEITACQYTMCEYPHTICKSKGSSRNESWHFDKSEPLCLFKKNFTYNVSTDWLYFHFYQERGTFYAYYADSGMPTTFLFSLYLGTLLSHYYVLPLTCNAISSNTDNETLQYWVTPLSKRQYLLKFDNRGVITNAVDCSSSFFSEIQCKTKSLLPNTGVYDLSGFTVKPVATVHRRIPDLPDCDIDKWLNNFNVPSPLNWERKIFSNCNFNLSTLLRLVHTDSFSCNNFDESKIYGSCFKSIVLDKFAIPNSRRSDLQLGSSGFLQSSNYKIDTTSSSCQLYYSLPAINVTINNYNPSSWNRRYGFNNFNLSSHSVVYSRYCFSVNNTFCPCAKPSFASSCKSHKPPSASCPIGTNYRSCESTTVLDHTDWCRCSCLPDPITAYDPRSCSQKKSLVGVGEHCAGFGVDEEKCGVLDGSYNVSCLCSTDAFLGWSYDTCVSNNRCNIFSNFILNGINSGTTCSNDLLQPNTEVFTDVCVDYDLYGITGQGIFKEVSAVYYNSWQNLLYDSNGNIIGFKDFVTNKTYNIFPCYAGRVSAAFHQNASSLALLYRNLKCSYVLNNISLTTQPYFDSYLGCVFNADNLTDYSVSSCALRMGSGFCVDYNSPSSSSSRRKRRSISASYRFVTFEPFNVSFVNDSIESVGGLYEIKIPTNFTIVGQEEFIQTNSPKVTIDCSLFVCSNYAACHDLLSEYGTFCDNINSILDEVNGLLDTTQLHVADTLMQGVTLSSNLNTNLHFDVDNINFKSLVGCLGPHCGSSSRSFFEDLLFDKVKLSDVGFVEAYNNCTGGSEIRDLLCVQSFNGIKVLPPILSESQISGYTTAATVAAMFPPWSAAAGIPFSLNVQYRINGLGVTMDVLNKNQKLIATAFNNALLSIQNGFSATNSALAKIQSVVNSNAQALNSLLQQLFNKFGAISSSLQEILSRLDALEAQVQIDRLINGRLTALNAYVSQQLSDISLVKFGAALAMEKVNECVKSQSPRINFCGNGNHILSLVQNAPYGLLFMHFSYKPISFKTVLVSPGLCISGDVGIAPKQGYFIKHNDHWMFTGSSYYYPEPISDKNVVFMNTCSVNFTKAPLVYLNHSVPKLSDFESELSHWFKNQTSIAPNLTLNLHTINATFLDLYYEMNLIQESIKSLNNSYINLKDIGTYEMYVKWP

[2] = molecular target: T2, MERS-CoV (London1/2012) prefusion-stabilized spike (S) protein / S ectodomain trimer (MERS-CoV (London1/2012), UniProt K9N5Q8 18-1296)
T2 sequence: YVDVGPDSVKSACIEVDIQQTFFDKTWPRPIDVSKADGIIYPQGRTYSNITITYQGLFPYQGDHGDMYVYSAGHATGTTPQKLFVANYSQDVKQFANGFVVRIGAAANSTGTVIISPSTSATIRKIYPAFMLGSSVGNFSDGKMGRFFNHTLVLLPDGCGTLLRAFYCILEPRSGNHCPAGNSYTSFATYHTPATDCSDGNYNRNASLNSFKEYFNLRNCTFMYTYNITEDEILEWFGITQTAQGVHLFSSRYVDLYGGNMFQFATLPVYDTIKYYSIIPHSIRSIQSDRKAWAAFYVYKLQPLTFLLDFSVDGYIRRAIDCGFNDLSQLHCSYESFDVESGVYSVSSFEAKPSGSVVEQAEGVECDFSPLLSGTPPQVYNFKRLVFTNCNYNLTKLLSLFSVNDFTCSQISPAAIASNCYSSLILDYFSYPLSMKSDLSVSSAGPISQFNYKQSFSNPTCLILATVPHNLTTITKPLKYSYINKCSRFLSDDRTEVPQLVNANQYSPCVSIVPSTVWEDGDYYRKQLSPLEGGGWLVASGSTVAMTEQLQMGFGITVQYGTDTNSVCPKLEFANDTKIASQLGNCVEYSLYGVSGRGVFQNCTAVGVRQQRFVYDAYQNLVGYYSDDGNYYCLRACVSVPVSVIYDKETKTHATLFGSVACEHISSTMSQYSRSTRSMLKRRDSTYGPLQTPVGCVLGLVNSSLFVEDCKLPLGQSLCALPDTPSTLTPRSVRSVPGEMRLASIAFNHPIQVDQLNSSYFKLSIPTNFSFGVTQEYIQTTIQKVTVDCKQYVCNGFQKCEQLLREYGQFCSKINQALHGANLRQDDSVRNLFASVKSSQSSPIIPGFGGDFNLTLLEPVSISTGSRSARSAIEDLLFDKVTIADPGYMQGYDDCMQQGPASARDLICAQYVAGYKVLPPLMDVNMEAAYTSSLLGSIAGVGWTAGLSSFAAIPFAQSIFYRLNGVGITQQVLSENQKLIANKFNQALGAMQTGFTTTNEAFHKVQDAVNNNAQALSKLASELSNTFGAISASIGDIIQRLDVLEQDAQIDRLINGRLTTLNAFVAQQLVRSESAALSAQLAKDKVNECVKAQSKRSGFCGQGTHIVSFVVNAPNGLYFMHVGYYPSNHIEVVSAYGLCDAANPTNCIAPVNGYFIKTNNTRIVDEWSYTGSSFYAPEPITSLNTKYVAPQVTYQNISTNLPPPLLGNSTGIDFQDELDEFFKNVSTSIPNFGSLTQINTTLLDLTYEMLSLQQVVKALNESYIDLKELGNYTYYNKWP

[3] = molecular target: SARS-CoV (Urbani strain) prefusion-stabilized spike (S) protein / S ectodomain trimer (SARS-CoV (Urbani strain), UniProt P59594 14-1195); assay: SPR (Biacore T200), S ectodomain trimer captured, Fab as analyte

B1: S2P6 Fab fragment (Fab, V domains shown)
VH: EVQLVQSGAEVKKPGASVKVSCKASGYTFTSQYMHWVRQAPGQGLEWIGIINPSGVHTSYAQKFQGRVTLTRDTSTSTLYMELSSLRSEDTAVYYCARGSPKGAFDYWGQGTLVTVSS
VL: not shown
Kd [1]: ~0.12 µM | Kd [2]: 0.012 µM | Kd [3]: 0.007 µM
